Assay results taken from IntAct's records for PubMed 21527715.

B1: Complement receptor type 2 (Homo sapiens), P20023 (parent)
chain: MGAAGLLGVFLALVAPGVLGISCGSPPPILNGRISYYSTPIAVGTVIRYSCSGTFRLIGEKSLLCITKDKVDGTWDKPAPKCEYFNKYSSCPEPIVPGGYKIRGSTPYRHGDSVTFACKTNFSMNGNKSVWCQANNMWGPTRLPTCVSVFPLECPALPMIHNGHHTSENVGSIAPGLSVTYSCESGYLLVGEKIINCLSSGKWSAVPPTCEEARCKSLGRFPNGKVKEPPILRVGVTANFFCDEGYRLQGPPSSRCVIAGQGVAWTKMPVCEEIFCPSPPPILNGRHIGNSLANVSYGSIVTYTCDPDPEEGVNFILIGESTLRCTVDSQKTGTWSGPAPRCELSTSAVQCPHPQILRGRMVSGQKDRYTYNDTVIFACMFGFTLKGSKQIRCNAQGTWEPSAPVCEKECQAPPNILNGQKEDRHMVRFDPGTSIKYSCNPGYVLVGEESIQCTSEGVWTPPVPQCKVAACEATGRQLLTKPQHQFVRPDVNSSCGEGYKLSGSVYQECQGTIPWFMEIRLCKEITCPPPPVIYNGAHTGSSLEDFPYGTTVTYTCNPGPERGVEFSLIGESTIRCTSNDQERGTWSGPAPLCKLSLLAVQCSHVHIANGYKISGKEAPYFYNDTVTFKCYSGFTLKGSSQIRCKADNTWDPEIPVCEKETCQHVRQSLQELPAGSRVELVNTSCQDGYQLTGHAYQMCQDAENGIWFKKIPLCKVIHCHPPPVIVNGKHTGMMAENFLYGNEVSYECDQGFYLLGEKKLQCRSDSKGHGSWSGPSPQCLRSPPVTRCPNPEVKHGYKLNKTHSAYSHNDIVYVDCNPGFIMNGSRVIRCHTDNTWVPGVPTCIKKAFIGCPPPPKTPNGNHTGGNIARFSPGMSILYSCDQGYLLVGEALLLCTHEGTWSQPAPHCKEVNCSSPADMDGIQKGLEPRKMYQYGAVVTLECEDGYMLEGSPQSQCQSDHQWNPPLAVCRSRSLAPVLCGIAAGLILLTFLIVITLYVISKHRARNYYTDTSQKEAFHLEAREVYSVDPYNPAS

Variants of: B1
Settings: with co3_human C3, P01024
Sequence of co3_human C3, P01024 (P01024 whole entry): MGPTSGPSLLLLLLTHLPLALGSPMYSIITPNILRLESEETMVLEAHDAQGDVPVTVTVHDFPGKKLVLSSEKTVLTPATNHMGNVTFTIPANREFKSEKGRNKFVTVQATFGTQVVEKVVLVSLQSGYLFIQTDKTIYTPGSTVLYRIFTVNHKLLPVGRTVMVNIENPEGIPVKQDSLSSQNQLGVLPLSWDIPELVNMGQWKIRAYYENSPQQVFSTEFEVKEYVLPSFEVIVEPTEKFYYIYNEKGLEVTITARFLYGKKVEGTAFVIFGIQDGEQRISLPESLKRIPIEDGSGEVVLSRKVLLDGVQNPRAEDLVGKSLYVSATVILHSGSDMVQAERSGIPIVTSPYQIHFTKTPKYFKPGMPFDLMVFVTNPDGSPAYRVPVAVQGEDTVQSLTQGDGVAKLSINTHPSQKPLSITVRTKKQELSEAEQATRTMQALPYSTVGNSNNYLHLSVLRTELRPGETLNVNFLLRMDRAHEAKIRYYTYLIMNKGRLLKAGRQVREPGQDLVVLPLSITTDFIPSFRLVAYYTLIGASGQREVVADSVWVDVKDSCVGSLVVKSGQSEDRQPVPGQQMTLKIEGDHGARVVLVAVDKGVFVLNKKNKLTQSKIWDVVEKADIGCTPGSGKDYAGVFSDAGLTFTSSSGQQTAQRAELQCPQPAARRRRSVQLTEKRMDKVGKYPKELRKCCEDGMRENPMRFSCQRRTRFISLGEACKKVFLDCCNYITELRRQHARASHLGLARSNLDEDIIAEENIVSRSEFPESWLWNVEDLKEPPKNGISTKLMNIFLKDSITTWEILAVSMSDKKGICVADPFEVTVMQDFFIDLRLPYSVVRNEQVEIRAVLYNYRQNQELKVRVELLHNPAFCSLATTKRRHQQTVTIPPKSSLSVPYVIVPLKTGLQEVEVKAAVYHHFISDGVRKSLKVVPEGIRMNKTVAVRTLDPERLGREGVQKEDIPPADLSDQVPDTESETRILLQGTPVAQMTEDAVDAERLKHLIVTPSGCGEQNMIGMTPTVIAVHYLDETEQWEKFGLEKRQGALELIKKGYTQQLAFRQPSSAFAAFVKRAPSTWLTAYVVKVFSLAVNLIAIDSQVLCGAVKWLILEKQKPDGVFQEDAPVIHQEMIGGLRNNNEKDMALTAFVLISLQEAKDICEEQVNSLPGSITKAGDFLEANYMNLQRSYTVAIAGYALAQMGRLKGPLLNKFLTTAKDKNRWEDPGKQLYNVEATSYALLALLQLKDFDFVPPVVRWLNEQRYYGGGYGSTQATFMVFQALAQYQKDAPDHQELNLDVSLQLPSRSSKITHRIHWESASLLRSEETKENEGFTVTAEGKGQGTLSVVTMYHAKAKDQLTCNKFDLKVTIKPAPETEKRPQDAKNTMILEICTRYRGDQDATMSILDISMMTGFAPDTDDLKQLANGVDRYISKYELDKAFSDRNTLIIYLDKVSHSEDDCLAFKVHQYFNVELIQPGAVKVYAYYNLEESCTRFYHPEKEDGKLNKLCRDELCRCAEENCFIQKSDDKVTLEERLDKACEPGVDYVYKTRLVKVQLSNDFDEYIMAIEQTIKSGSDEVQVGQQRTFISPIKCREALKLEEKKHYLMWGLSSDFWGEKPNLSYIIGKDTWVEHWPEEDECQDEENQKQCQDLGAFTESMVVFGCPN

Effect of a mutation on the interaction, decreasing interaction:
R103A
D112A
K128A
